Assay results taken from patent publication US8889621B2, “Inhibiting binding of FGF23 to the binary FGFR-Klotho complex for the treatment of hypophosphatemia” (New York University, priority 2009, dated 2014).
“Also recorded” adds a separate entry of the source. Peptide text beside a SMILES is read from it.

Experiments:
Hyp mice = assay: Urine and serum phosphate in Hyp mice after IP injection; format: in vivo, mouse; settings: vs vehicle; for serum phosphate: IP, FGF23^180-251 1 mg or FGF23^180-205 860 μg
From the text: (§1) The anti-phosphaturic activity of FGF23 C-terminal peptides was examined in normal Sprague-Dawley rats and in Hyp mice, a mouse model of human X-linked hypophosphatemia (XLH) (Beck et al., “Pex/PEX Tissue Distribution and Evidence for a Deletion in the 3′ Region of the Pex Gene in X-linked Hypophosphatemic Mice,” J Clin Invest 99(6):1200-1209 (1997), Eicher et al., “Hypophosphatemia: Mouse Model for Human Familial Hypophosphatemic (Vitamin D-resistant) Rickets,” Proc Natl Acad Sci USA 73(12):4667-4671 […], Strom et al., “Pex Gene Deletions in Gy and Hyp Mice Provide Mouse Models for X-linked Hypophosphatemia,” Hum Mol Genet. 6(2):165-171 (1997), which are hereby incorporated by reference in their entirety). The animals were fed a complete, fixed formula diet containing 0.94% phosphate. Anesthetized rats (220-250 g body weight) were administered IV either FGF23^28-251 (0.1 μg kg body weight^−1) or FGF23^180-251 (0.1 μg kg body weight^−1) or vehicle. Before and 3 h after the injection, blood was drawn from the carotid artery and urine was collected through bladder catheterization. Plasma and urine chemistry of animals were analyzed using Vitros Chemistry Analyzer (Ortho-Clinical Diagnosis). 10- to 15-week old Hyp mice were fasted for 8-12 h before administering IP either FGF23^180-251 (1 mg) or FGF23^180-205 (860 μg) or vehicle. Before and 2 h, 4 h, 8 h, and 24 h after the injection, urine and serum samples were collected. Phosphate concentrations in urine and serum were determined using Phosphorus Liqui-UV Test (Stanbio Laboratory), and urine creatinine levels were measured using DetectX™ Urinary Creatinine Detection Kit (LuminosAssays).

NaPi-2C = NaPi-2C protein abundance in apical brush border membrane of rat kidney; format: in vivo; settings: IV 0.1 μg kg body weight^−1, 3 h post injection, vs vehicle
Method: Immunoblot analysis of NaPi-2A and NaPi-2C protein abundance in renal cortex tissue and isolated brush border membrane vesicles (BBMV), and NaPi-2A immunostaining of renal tissue were performed as described (Bacic et al., “Activation of Dopamine Dl-like Receptors Induces Acute Internalization of the Renal Na^+/phosphate Cotransporter NaPi-IIa in Mouse Kidney and OK cells,” Am J Physiol Renal Physiol 288(4):F740-747 (2005), Loffing et al., “Renal Na/H Exchanger NHE-3 and Na—PO4 Cotransporter NaPi-2 Protein Expression in Glucocorticoid Excess and Deficient States,” J Am Soc Nephrol 9(9):1560-1567 (1998), Moe et al., “Dietary NaCl Modulates Na(+)-H+ Antiporter Activity in Renal Cortical Apical Membrane Vesicles,” Am J Physiol 260(1 Pt 2):F130-137 (1991), which are hereby incorporated by reference in their entirety).
For immunoblot, rat kidney cortices were dissected and homogenized, and BBMV were isolated (Loffing et al., “Renal Na/H Exchanger NHE-3 and Na—PO4 Cotransporter NaPi-2 Protein Expression in Glucocorticoid Excess and Deficient States,” J Am Soc Nephrol 9(9):1560-1567 (1998), Moe et al., “Dietary NaCl Modulates Na(+)-H+ Antiporter Activity in Renal Cortical Apical Membrane Vesicles. Am J Physiol 260(1 Pt 2):F130-137 (1991), which are hereby incorporated by reference in their entirety). […]

Sprague-Dawley rats = assay: Plasma and urine phosphate in Sprague-Dawley rats after IV injection; format: in vivo, rat; settings: IV 0.1 μg kg body weight^−1, 3 h, healthy rats
From the text: as §1

Molecule | serum phosphate (Hyp mice) | renal phosphate excretion (Hyp mice; IP 1 mg) | NaPi-2C protein expression in the apical brush border membrane (NaPi-2C) | excretion rate and fractional excretion of phosphate (Sprague-Dawley rats) | plasma phosphate (Sprague-Dawley rats)
CSCC[C@H](NC(=O)[C@H](CCCNC(=N)N)NC(=O)[C@H](C)NC(=O)[C@H](CCCNC(=N)N)NC(=O)[C@@H]1CCCN1C(=O)[C@H](CCCCN)NC(=O)[C@H](CC(C)C)NC(=O)[C@@H](NC(=O)[C@H](CC(N)=O)NC(=O)[C@H](CC(C)C)NC(=O)[C@@H]1CCCN1C(=O)[C@H](CC(=O)O)NC(=O)[C@H](CCCNC(=N)N)NC(=O)[C@H](CCC(=O)O)NC(=O)[C@H](CO)NC(=O)[C@H](CC(=O)O)NC(=O)[C@H](CC(=O)O)NC(=O)[C@H](CCC(=O)O)NC(=O)[C@H](C)NC(=O)[C@@H](N)CO)C(C)C)C(=O)N[C@H](C(=O)N1CCC[C@H]1C(=O)N[C@@H](C)C(=O)N1CCC[C@H]1C(=O)N[C@@H](C)C(=O)N[C@@H](CO)C(=O)O)[C@@H](C)O [FGF23^180-205] (H-SAEDDSERDPLNVLKPRARMTPAPAS-OH; N-terminus and C-terminus assumed) | increase |  |  |  | 
FGF23^180-251: 72-amino acid C-terminal tail of human FGF23 (S180 to I251), expressed in E. coli (protein, listed as Homo sapiens) SAEDDSERDPLNVLKPRARMTPAPASCSQELPSAEDNSPMASDPLGVVRGGRVNTHAGGTGPEGCRPFAKFI | elevated | decrease | increased | renal phosphate retention; also recorded: decreased | induced hyperphosphatemia
FGF23^28-251: human FGF23 (A28 to I251), bioactive full-length ligand expressed in E. coli (protein, listed as Homo sapiens) ASPLLGSSWGGLIHLYTATARNSYHLQIHKNGHVDGAPHQTIYSALMIRSEDAGFVVITGVMSRRYLCMDFRGNIFGSHYFDPENCRFQHQTLENGYDVYHSPQYHFLVSLGRAKRAFLPGMNPPPYSQFLSRRNEIPLIHFNTPIPRRHTRSAEDDSERDPLNVLKPRARMTPAPASCSQELPSAEDNSPMASDPLGVVRGGRVNTHAGGTGPEGCRPFAKFI |  |  | diminished | increased | significant decrease; also recorded: induced hypophosphatemia
